According to patent US20120034161A1, “PRETARGETING KIT, METHOD AND AGENTS USED THEREIN” (KONINKLIJKE PHILIPS ELECTRONICS N.V., priority 2009, published 2012):

Tested on: human colon cancer cell line LS174T
Details: mouse, in vivo

For “Rtx-TCO: TCO-modified rituximab for control in vivo experiments; lacks specificity for TAG72”, the 125I-mAb in tumor was 6.3±1.2 % ID/g.
